In paper PMC12501226 one finds stoichiometry N data, which are given here for four substances.

Assay in all cases: SEC
The target in experiment [1] is T1A (collagen XVIII trimerization domain, 1-residue G/S linker, ACE2 18-615) (human) (UniProt P39060).
Experiment [2] deals with T3A (collagen XVIII trimerization domain, 3-residue G/S linker, ACE2 18-615) (human) (UniProt P39060).
For experiment [3], the target named is T5A (collagen XVIII trimerization domain, 5-residue G/S linker, ACE2 18-615) (human) (UniProt P39060).
The target of experiment [4] is T18A (collagen XVIII trimerization domain, 18-residue G/S linker, ACE2 18-615) (human) (UniProt P39060).

As to “T1A (collagen XVIII trimerization domain, 1-residue G/S linker, ACE2 18-615) (from UniProt P39060;Q9BYF1)”, in experiment [1], the stoichiometry N was 3.
As for “T3A (collagen XVIII trimerization domain, 3-residue G/S linker, ACE2 18-615) (from UniProt P39060;Q9BYF1)”, in experiment [2], the stoichiometry N worked out at 3.
For the substance “T5A (collagen XVIII trimerization domain, 5-residue G/S linker, ACE2 18-615) (from UniProt P39060;Q9BYF1)”, the stoichiometry N in experiment [3] was determined as 3.
As for “T18A (collagen XVIII trimerization domain, 18-residue G/S linker, ACE2 18-615) (from UniProt P39060;Q9BYF1)”, the stoichiometry N in experiment [4] came to 3.
